Measurements from the nanobody polyreactivity screen of Harvey et al. (2022).

assay: yeast display, Sf9 membrane polyspecificity reagent, FACS + sequencing; frameworks hold sequencing errors
In short: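 Sorting gates, low and high (top ~1%), were placed on anti-HA fluorescence to track expression and on streptavidin fluorescence to track reagent binding. A clone's polyreactivity label is taken from the gate it came out of. The reagent was 10% biotinylated, detergent-solubilized Sf9 membrane, applied for 1 hour at 4 °C to galactose-induced yeast display cells.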

| Sequence | polyreactivity (PSR sort gate) |
| --- | --- |
| QVQLVESGGGLVQAGGSLRLSCAGSGFISYYYAMGWYRQAPGKEREFVAAITSSGGSTRYADSVKGRFTISRDNAKNTVYLQMNSLKPEDTAVYYCNADYYWFFDFFDYDYWGQGTQVTVSS | low polyreactivity |
| QVQLVESGGGLVQAGGSLRLSCAGSGINFHLYAMGWYRQAPGKERELVAAISWNGSSTYYADSVKGRFTISRDNAKNTVYLQMNSLKPEDTAVYYCAASYGYFEDYGYWGQGNQVTVSS | low polyreactivity |
| QVQLVESGGGLVQAGGSLRLSCAGSGLIFDDYPMGWYRQAPGKERELVAAISWSDGTTYYADSVKGRFTISRDNAKNTVYLQMNSLKPEDTAVYYCAAEEVSGWEYDYWGQGTQVTVSS | high polyreactivity |
| QVQLVESGGGLVQAGGSLRLSCAGSGRSFVYNAMGWYRQAPGQDRELVAAITSGGRTYYADSVKGRFTISRDNAKNTVYLQINSLKPEDTAVYDCAKRFWFNTYAAHPAGFDYWGQGTQVTVSS | low polyreactivity |
| QVQLVESGGGLVQAGGSLRLSCAGSGRTSLAYAMGWYRQAPGKERELVAGITSGGNTNYADSVKGRFTISCDNAKNTVYLQMNSLKPEDTAVYYCNKKKRWQWYSESVLDYLGFYSWGQGTQVTVSS | low polyreactivity |
| QVQLVESGGGLVQAGGSLRLSCAGSGSTFFEYAMGWYRQAPGKDREFVAGISWSGGITYYADSVKGRFTISRDNAKNTVYLQMNSLKPEDTAVYYCASAGGDWYGVDYWGQGTQVTVSS | low polyreactivity |
| QVQLVESGGGLVQAGGSLRLSCAGSGSTFQNNAMGWYSQAPGKERELVAAISRSSGRRYYADSVKGRFTISRDHAKNTVYCQMNSLKPEDTAGYYCAASLGGYITRYNYWGQGTQVTVSS | high polyreactivity |
| QVQLVESGGGLVQAGGSLRLSCAGSGSTFRSNALGWYRQEPGKVRELVAAISLRGGSTDYADSVKGRFTISRDNAKNTVYLQMNSLTPEDTAVYFCAKVSKRVGFPTAMNYWGHGTQVTVSS | high polyreactivity |
| QVQLVESGGGLVQAGGSLRLSCAHSGFIFCNYAMGWYRHAPGKERELVAAITSGGTSTYYADSVKGRFTISRDNAKNTVYLQMNCLKPEDTAVYFCAAVTGLFSYWDYSAMYYWGQGTQVTVSS | high polyreactivity |
| QVQLVESGGGLVQAGGSLRLSCAHSGYILGGYGMGWYRQAPGKERELVAVITSSGSTDYADSVKGRYTISRDNAMNTVYVQMNTLKPEDSAGYYCAADFLWYIYNIGTSLEYDYWGQGTQVTVSS | low polyreactivity |
| QVQLVESGGGLVQAGGSLRLSCAMGWYRPAPGKERELVAGITGGGRTHYADSVKGRFTISRDNAKNTVYLQMNSLKPEDTAVYYCAAGGVRSQVPWSWYYYWGQGTQVTVSS | low polyreactivity |
| QVQLVESGGGLVQAGGSLRLSCAPPDLPSVVMLWDGIDRRLGKKGSSLPLLLLLVVSHADSVKGRFTISRDNAKNTVYLQMNSLKPDDTAVYYCAVAVLPWQLYSESYAEYDYWGQGTQVTVSS | low polyreactivity |
| QVQLVESGGGLVQAGGSLRLSCAPSGFFFYSNTMGWYRQAPGKERELVDTISKRSGNTYYADSVKGRFTISRDFAKNTVYLQMNSLKPEDTSVYYCAADFWVRHKMWYPYTSIQAYNYWGQGTQVTVSS | high polyreactivity |
| QVQLVESGGGLVQAGGSLRLSCAPSGFIFPLYTMGWYTQAPGKERELVAAIDFSGASTYYADSVKGRFTISRDNAKNTVYLLMNSLKPEDTAVYYCATYGSYRITVFYAYYYWGQGTQVTVSS | low polyreactivity |
| QVQLVESGGGLVQAGGSLRLSCAPSGFIFTRYAMGWYRQAPGKERELVAAISWSGGSTYYADSVKGRFTISRDNAKNTVYLQMNSLKPEDTAVYYCAADGSDSYDYWGQGTQVTVSS | low polyreactivity |
| QVQLVESGGGLVQAGGSLRLSCAPSGGTFYSYAMGWYRQAPGKESELVAAISRRGASTYYADSVKGRFTISRDNAKNNVYLQMNSLKPEDTAGYYCAAKGRSYGVTRMYYWGQGTQVTVSS | high polyreactivity |
| QVQLVESGGGLVQAGGSLRLSCAPSGHIFLQNAMGWYRQAPGKERELVAGITYSDTSTYADSVKGRFTISRDNAKNTVYLQMNSLKPEDTAVYYCEYYYWGQGTQVTVSS | low polyreactivity |
| QVQLVESGGGLVQAGGSLRLSCAPSGITFGEYAMGWYRPAPGKERELVAAISRSGGSTYADSVKGRFTISRDNAKNTVYLQMNSLKPEDTAVYYCAAYSGVGYLWFDYWGQGTQVTVSS | low polyreactivity |
| QVQLVESGGGLVQAGGSLRLSCAPSGITFRFYAMGWYRQAPGKEREFVAAISRSDSSYYADSVKGRFTISRDNAKNTVYLHMNSLKPEDSAVYYCAADSYRSAQGLDYWGQGSQVTVSS | high polyreactivity |
| QVQLVESGGGLVQAGGSLRLSCAPSGLILDGNVMGWYRQAPGTERELVAAINTSGGSTYYADSVKGRFTISRDNAKNTVYLQMNSLKPEDTAVYYCAARYPTDYDYWGQGTQVTVSS | low polyreactivity |
| QVQLVESGGGLVQAGGSLRLSCAPSGLTFTTYAMGWYRQAPGKERELVAAISRRGSRTYYADSVKGRFTISRDNAKNTVYLQMNSLKPEDTAVYYCNALTGSFKTYSFDYWGQGTQVTVSS | high polyreactivity |
| QVQLVESGGGLVQAGGSLRLSCAPSGLTFVGYAMGWYRQAPGKERELVAAISGVGTTNYADSVKGRFTISRDNAKNTVYLQMNSLKPEDTAVYYCATAPYPVPYRLYDYWGQGTQVTVSS | low polyreactivity |

| Sequence | polyreactivity (PSR sort gate) |
| --- | --- |
| QVQLVESGGGLVQAGGSLRLSCAPSGNTFEHYAMGWYRQAPGKERELVAAISYSGGSTYYADSVKGRFTISRDNAKNTVYLQMNSLKPEDTAVYYCNARGRASATGRRGRPDPFGYWGQGTQVTLSS | high polyreactivity |
| QVQLVESGGGLVQAGGSLRLSCAPSGRIFLPYAMGWYRPAPGKEWELVAGISSGGSTKYADSVKGRFTISRDNAMNTVYLQMNSLKPEDTAVYYCNRRFPIYCSRFGYYYWGQGTQVTVSS | high polyreactivity |
| QVQLVESGGGLVQAGGSLRLSCAPSGRIFTPYAMGWYRQAPGKERELVAVIRDGSTYYADSVKGRFTISRDNAKNTVYLKMNSLKPEDTAVYYCRYDIWVWWSGAYDYWGQGTQVNVSS | low polyreactivity |
| QVQLVESGGGLVQAGGSLRLSCAPSGRIFVYYTMGWYRQAPGKERELVAAITGSGGSTYYADSVKGRFTISRDNAKYTVYLQMNSLKPVDTAVYYCAVYDSYRKFKYWGQGTQVTVSS | high polyreactivity |
| QVQLVESGGGLVQAGGSLRLSCAPSGRIFWFNMGCYRQAPGKERELVAAINSGGRTNYADSVKGRFTISRDNAQNTVYLQMNSLKPEDTAVYYCNARYYQVRRWYHYDYSGQGTQVTVSS | high polyreactivity |
| QVQLVESGGGLVQAGGSLRLSCAPSGRIFYTKAMGWYRPAPGKERELVATIRISGGNTYYADSVKGRFTISRDNAKNTVYLQMNSLKPEDTAVYYCAARARPRYYRPPYDYWGQGTQVTVSS | high polyreactivity |
| QVQLVESGGGLVQAGGSLRLSCAPSGRILAYYAMGWYRQAPGKEREFVAAIDSGSSTNYADSVKGRFTISRDNAKNTVYLQMNSLKPEDTAVYYCAARIRWWYYYLRSQTYYYWGQGTQVTVSS | low polyreactivity |
| QVQLVESGGGLVQAGGSLRLSCAPSGRTFGGYVRGRYRQAPGKERELVATITYSGGSTHYADSVKGRFTISRDNAKITVYLQMNSLKPEDTAVYYCARRRSYRYPSEYNYWGQGTQVTVSS | high polyreactivity |
| QVQLVESGGGLVQAGGSLRLSCAPSGRTFPYYAIGSYRQAPGKERELVARITGSGTSTYYADSVKGRFTISRDNAKNTVYLQMNSLKPEDTAVYYCAAPKYGSYYIADYEYWGQGTQVTVSS | low polyreactivity |
| QVQLVESGGGLVQAGGSLRLSCAPSGRTFVSNAMGWYRQAPGKERELVAGINWTDDSTYYADSVKGRFTISRDNAKNTVYLQMNSLKPEDTGVYFCGAYSWEFAWPRFDYWGQGTKVTVSS | low polyreactivity |
| QVQLVESGGGLVQAGGSLRLSCAPSGRTFVWNAMGWYRQAPVKERELVAAITSGGSTNYADSVKGRFTISRDNAKNTVYLQMNSLKAEDTAVYYCAAYPDYYEDDYWGQGTQVTVSS | low polyreactivity |
| QVQLVESGGGLVQAGGSLRLSCAPSGRTFWAYAMGWYRQAPGKERELVAAITRSGTTTSYADSVKGRFTISRDNAKNTVYLQMNSLKPEDTAVYYCNARPIRVYINSAQHYDYWGQGTQVTVSS | high polyreactivity |
| QVQLVESGGGLVQAGGSLRLSCAPSGRTFYIYAMGWSRQAPGKERELVAAITRSGGSTYYADSVKGRFTISRDNAKNTVYLQMNSLKPEDTAVYYCNARRWITSDYWGQGTQVTVSS | high polyreactivity |
| QVQLVESGGGLVQAGGSLRLSCAPSGRTFYTYAMGWYRQAPGKERELVAAITRRGGSTFYADSVKGRFTISLDNAKNPVDLQMNSLKPEDTAVYYCAAGVVWSYSLYSIYEYDYWGQGTQVTVSS | high polyreactivity |
| QVQLVESGGGLVQAGGSLRLSCAPSGRTFYWYTMGWYRQAPGKERELVAAISSSDGSTYYADSVKGRFTISRDNAKNTVYLQMNSLKPEDTAVYYCAADLYYYRYWYRFNYWGQGTQVTVSS | high polyreactivity |
| QVQLVESGGGLVQAGGSLRLSCAPSGRTIGRNAMGWSRQAPGKERELVAAISASGSRTYYAESVKGRFTISRDNAMNTVYLQMNSLKPVDTAVYYCNAVYRTLYYRFYYWGQGTQVTVSS | high polyreactivity |
| QVQLVESGGGLVQAGGSLRLSCAPSGRTLRVNTMGWYRQAPGKERELVAAISSGGSRTNYADSVKGRFTISRDNAKNTVYLQMNSLKPEDTAVYYCNKYNRFVYSPPSVYWGQGTQVTVSS | high polyreactivity |
| QVQLVESGGGLVQAGGSLRLSCAPSGRTYLTYVMGWYRQAPGKERELVAAITRGGRTNYADSVKGRFTISRDNAKNTVYLQMNSLQPEDTAVYYCARDIHSVHNNRDKHDYDDWGQGTLVTVSS | low polyreactivity |
| QVQLVESGGGLVQAGGSLRLSCAPSGSIFIYYAMGWYRPAPGKERELVAAINIGGSTYYADSVKGRFTISRDNAKNSVYLQMKSLKPEDTAVYYCNAATWYRVYPYYIIYDYWGQGTQVTVSS | low polyreactivity |
| QVQLVESGGGLVQAGGSLRLSCAPSGSIFLQYTMGWYRQAPGKERELVAAITESDGSTYYADSVKGRFTISRDNAKNTVYLQMNSLKPEDTAVYYCAADVVYFKYWDKYDYWGQGTQVTVSS | low polyreactivity |
| QVQLVESGGGLVQAGGSLRLSCAPSGSIFPSYAMGWYRQAPGKERELVAAISRSAGSTYYADSVKGRFTISRDNAKNTVYLQMNSLKPEDPAVYYCAADGYSSRYRYDYWGQGTQVTVSS | low polyreactivity |
